Columns and labels:
RBD-Fc (SARS-CoV; human) [1] = target: RBD-Fc (SARS-CoV; human) (UniProt P59594); assay: competitive ELISA on coated RBD-Fc; competitor: biotinylated 45B5
RBD-Fc (SARS-CoV; human) [2] = target: RBD-Fc (SARS-CoV; human) (UniProt P59594); assay: competitive ELISA on coated RBD-Fc; competitor: biotinylated 10E7
RBD-Fc (SARS-CoV; human) [3] = target: RBD-Fc (SARS-CoV; human) (UniProt P59594); assay: ELISA, antigen coated 1 µg/ml, mAb 10 µg/ml
[4] = target: DTT-reduced RBD-Fc (SARS-CoV; human) (UniProt P59594); assay: ELISA, antigen coated 1 µg/ml, mAb 10 µg/ml
[5] = target: DTT-reduced S1-C9 (SARS-CoV) (UniProt P59594); assay: ELISA, antigen coated 1 µg/ml, mAb 10 µg/ml
S1-C9 (SARS-CoV) = S1-C9 (SARS-CoV) (UniProt P59594); assay: ELISA, antigen coated 1 µg/ml, mAb 10 µg/ml
RBD-Fc (SARS-CoV; human) [6] = target: RBD-Fc (SARS-CoV; human) (UniProt P59594); assay: competitive ELISA on coated RBD-Fc; competitor: biotinylated 33G4
[7] = target: SARS-CoV S protein on SARS pseudovirus (SARS-CoV) (UniProt P59594); assay: cell-based or functional assay
RBD-Fc (SARS-CoV; human) [8] = target: RBD-Fc (SARS-CoV; human) (UniProt P59594); assay: competitive ELISA on coated RBD-Fc; competitor: biotinylated 11E12
RBD-Fc (SARS-CoV; human) [9] = target: RBD-Fc (SARS-CoV; human) (UniProt P59594); assay: competitive ELISA on coated RBD-Fc; competitor: biotinylated 17H9

Substance: 4D5 (antibody)
- % inhibition (RBD-Fc (SARS-CoV; human) [1]): 1%
- % inhibition (RBD-Fc (SARS-CoV; human) [2]): 13%
- reactivity (absorbance at 450 nm) (RBD-Fc (SARS-CoV; human) [3]): 0.88
- reactivity (absorbance at 450 nm) [4]: 1.36
- reactivity (absorbance at 450 nm) [5]: 0.94
- reactivity (absorbance at 450 nm) (S1-C9 (SARS-CoV)): 0.65
- % inhibition (RBD-Fc (SARS-CoV; human) [6]): -11.1%
- ND50, neutralization of SARS pseudovirus infection of 293T/ACE2 cells [7]: > 100 µg/mL
- % inhibition (RBD-Fc (SARS-CoV; human) [8]): 10.6%
- % inhibition (RBD-Fc (SARS-CoV; human) [9]): -10.5%
